From patent US20160368995A1 (University of California, published 2016)

Tests used:
Assay in all cases: binding and/or signaling studies
CCR2 = molecular target: T1, CCR2 (human, UniProt P41597-2 1-360)
T1 sequence: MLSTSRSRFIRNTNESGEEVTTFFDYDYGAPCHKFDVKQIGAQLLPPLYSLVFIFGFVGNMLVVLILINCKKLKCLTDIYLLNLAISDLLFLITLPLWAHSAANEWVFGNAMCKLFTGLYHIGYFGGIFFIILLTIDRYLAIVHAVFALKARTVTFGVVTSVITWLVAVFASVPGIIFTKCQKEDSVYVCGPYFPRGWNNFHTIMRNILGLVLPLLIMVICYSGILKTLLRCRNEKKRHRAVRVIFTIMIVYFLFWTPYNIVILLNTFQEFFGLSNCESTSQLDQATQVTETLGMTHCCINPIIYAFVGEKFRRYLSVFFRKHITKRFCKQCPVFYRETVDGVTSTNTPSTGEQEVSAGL
Method: (§1) Radioligand displacement studies of various chemotaxis receptors were carried out. For the radioligand binding assay, membranes from HEK293T cells transiently expressing the respective chemokine receptors were incubated with ˜[…] ¹²⁵I-chemokine and increasing concentrations of chemokine (control) or CXCL17. Cells were incubated for 3 h at 4° C. and washed twice with binding buffer containing 0.5 M NaCl. After harvesting the samples with lysis buffer, the remaining cell-bound radioactivity was counted.

CXCR3 = molecular target: T2, CXCR3 (UniProt P49682 1-368, limits assumed)
T2 construct: whole, on cells
T2 sequence (looked up): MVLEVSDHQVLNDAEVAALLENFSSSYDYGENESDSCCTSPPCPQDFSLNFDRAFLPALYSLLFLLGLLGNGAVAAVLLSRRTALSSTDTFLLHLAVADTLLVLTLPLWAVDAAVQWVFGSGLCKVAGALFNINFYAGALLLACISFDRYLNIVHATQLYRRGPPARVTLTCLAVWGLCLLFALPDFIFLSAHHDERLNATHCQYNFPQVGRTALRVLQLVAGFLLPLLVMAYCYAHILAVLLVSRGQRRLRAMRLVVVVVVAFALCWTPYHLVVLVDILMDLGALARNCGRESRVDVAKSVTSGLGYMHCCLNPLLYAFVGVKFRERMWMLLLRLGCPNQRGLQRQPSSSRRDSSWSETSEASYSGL
Method: as §1

CXCR4 = molecular target: T3, CXCR4 (human, UniProt P61073-2 1-356)
T3 construct: The construct used is not described
Method: as §1

CXCR7 = molecular target: T4, CXCR7 (human, UniProt P25106 1-362)
T4 construct: Tested on CXCR7 expressing cells
Method: as §1

CCX-CKR = molecular target: T5, CCX-CKR (UniProt Q9NPB9 1-350, limits assumed)
T5 construct: whole, on cells
T5 sequence (looked up): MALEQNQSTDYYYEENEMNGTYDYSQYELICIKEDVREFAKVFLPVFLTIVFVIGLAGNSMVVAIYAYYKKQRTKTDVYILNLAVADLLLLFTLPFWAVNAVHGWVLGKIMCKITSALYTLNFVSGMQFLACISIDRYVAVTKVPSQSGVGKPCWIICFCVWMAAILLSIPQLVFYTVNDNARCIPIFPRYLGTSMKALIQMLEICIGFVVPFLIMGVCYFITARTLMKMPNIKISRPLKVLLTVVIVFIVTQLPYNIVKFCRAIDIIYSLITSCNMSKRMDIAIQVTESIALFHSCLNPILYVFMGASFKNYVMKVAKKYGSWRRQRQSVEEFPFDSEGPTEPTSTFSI
Method: as §1

Measured: binding result

T4 sequence (P25106 whole entry): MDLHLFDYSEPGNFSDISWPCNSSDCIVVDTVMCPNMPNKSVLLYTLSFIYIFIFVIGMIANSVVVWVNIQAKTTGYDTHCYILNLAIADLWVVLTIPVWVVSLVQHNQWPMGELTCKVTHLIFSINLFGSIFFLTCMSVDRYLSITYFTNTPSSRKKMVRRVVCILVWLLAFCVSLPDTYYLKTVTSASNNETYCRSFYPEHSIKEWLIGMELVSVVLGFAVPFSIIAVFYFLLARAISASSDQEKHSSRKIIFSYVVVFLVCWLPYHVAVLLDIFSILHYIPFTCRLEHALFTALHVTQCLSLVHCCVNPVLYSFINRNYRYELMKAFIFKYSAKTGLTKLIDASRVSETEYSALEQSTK
T3 sequence (P61073 other isoform, or with tags, fused parts or gaps): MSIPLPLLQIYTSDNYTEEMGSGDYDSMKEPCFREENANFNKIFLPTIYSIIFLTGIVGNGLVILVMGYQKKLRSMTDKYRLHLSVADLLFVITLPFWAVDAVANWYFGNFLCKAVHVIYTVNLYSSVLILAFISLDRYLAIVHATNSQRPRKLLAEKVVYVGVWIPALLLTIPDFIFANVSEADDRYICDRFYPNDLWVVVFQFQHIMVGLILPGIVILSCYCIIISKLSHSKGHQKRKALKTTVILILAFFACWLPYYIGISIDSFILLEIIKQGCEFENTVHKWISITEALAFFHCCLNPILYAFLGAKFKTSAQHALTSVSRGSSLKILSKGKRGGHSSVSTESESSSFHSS

B1: recombinant human CXCL17 (chemokine (C-X-C motif) ligand 17) (ligand)
chain: SSLNPGVARGHRDRGQASRRWLQEGGQECECKDWFLRAPRRKFMTVSGLPKKQCPCDHFKGNVKKTRHQRHHRKPNKHSRACQQFLKQCQLRSFALPL
notes: Bought recombinant protein (R&D Systems); also called human recombinant CXCL17
no binding: all assays above
